In patent publication US20160289698A1 (TRUSTEES OF DARTMOUTH COLLEGE, published 2016):

T1: ARR12 (Arabidopsis, UniProt P62598 1-596)
T1 construct: YFP^N or YFP^C fusion of the full-length cDNA in BiFC; also called AtARR12; type-B response regulator AtARR12
T1 sequence (looked up): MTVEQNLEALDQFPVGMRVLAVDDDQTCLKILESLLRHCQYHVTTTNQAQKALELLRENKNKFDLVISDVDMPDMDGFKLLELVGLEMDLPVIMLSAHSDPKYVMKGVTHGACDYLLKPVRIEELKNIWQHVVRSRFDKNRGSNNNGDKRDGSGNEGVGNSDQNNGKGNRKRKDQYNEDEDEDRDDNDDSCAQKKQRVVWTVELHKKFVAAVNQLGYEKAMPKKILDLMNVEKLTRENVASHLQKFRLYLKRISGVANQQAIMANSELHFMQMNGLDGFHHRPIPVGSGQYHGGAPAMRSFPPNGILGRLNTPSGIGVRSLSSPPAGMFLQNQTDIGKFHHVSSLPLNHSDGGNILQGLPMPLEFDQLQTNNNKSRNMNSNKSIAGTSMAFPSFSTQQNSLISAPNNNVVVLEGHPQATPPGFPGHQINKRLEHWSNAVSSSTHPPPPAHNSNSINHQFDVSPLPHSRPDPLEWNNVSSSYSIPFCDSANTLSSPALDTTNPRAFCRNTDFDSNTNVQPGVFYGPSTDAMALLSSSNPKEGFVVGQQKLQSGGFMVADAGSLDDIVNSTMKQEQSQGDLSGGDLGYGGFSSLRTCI

T2: ARR20 (type-B ARR subfamily-3) (Arabidopsis, UniProt Q9LZJ8 1-426, limits assumed)
T2 sequence (looked up): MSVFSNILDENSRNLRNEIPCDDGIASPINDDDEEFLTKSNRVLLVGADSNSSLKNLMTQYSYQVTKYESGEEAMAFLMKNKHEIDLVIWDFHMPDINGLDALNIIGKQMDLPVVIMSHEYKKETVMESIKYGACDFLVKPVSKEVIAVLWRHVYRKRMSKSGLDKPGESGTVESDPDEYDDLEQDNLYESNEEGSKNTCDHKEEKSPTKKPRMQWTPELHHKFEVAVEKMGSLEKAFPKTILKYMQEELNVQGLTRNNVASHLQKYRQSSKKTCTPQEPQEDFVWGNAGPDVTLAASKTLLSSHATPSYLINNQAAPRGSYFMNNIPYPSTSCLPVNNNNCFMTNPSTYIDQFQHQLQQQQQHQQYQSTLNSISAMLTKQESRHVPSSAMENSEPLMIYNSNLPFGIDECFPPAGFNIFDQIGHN

T3: ARR21 (subfamily-3) (Arabidopsis, UniProt Q9LYP5 1-613, limits assumed)
T3 sequence (looked up): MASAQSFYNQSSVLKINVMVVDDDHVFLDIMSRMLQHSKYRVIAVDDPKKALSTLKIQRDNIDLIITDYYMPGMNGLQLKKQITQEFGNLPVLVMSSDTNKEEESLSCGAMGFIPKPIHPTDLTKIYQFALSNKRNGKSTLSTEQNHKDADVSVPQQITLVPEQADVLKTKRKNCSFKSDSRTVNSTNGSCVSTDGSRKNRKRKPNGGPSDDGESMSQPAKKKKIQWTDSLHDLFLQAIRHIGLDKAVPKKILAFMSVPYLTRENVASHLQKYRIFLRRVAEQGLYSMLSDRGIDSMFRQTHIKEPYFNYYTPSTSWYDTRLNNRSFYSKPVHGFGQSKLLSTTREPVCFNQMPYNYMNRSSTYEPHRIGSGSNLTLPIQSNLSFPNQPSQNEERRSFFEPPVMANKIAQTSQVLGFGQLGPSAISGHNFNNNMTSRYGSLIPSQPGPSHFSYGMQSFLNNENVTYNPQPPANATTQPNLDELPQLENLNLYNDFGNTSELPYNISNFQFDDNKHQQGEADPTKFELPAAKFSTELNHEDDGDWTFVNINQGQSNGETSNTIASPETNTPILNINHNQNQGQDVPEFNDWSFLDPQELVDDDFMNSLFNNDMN

T4: ARR2 (Arabidopsis, UniProt Q9ZWJ9 1-664, limits assumed)
T4 construct: also called type-B response regulator ARR2
T4 sequence (looked up): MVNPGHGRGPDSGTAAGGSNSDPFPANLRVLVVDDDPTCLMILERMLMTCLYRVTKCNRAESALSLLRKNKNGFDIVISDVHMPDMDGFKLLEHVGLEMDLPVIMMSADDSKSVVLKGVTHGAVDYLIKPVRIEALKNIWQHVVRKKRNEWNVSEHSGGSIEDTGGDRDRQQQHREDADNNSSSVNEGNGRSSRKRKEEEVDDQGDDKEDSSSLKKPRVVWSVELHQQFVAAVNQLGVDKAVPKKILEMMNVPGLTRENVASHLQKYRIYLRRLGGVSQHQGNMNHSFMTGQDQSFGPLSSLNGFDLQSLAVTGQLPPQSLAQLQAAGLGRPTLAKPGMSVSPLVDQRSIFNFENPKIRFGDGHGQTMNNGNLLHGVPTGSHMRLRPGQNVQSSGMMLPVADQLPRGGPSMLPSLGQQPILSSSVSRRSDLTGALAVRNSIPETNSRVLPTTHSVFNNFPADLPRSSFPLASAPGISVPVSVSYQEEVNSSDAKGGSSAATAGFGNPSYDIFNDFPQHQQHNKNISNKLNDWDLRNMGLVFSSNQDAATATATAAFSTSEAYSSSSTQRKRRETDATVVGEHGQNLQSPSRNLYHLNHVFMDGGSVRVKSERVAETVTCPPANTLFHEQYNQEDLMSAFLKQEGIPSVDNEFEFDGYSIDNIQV


Columns and labels:
Assay in all cases: yeast two-hybrid (LexA-KMD bait, B42-ARR prey, X-gal)
[1] = target: T1, ARR12
Text: (§1) The DUPLEX-A™ system (OriGene Technologies) was used for yeast two-hybrid analysis of interactions. KMD cDNAs were cloned into the pGilda bait vector, which produces an in-frame fusion with the LexA DNA-binding domain. Type-B ARR coding sequences were cloned into the pJG4-5 prey vector, which produces a B42 activation domain. The yeast strain EGY48 (MATa, trp1, his3, ura3, leu2::6 LexAop-LEU2) that contains the lacZ reporter plasmid pSH18-34 was transformed with the appropriate “bait” and “prey” plasmids. Interactions were tested on 5-bromo-4-chloro-3-indolyl-p-D-galactopyranoside (X-gal) medium (Ryu, et al. (2005) Cell 120(3): 395-406).
(§2) The KMD proteins also interacted with ARR20 (type-B ARR subfamily-3), but not with ARR19 (subfamily-2) and ARR21 (subfamily-3). […] All four KMD proteins interacted with both ARR1 and ARR12 in a BiFC assay. Strong fluorescence was detected in the nuclei of cells, consistent with the subcellular localization of the type-B ARRs (Hwang & Sheen J (2001) Nature 413(6854):383-389; Mason, et al. (2004) Plant Physiol. 135(2):927-937).

[2] = target: T2, ARR20 (type-B ARR subfamily-3)
Text: as §1, §2

[3] = target: T3, ARR21 (subfamily-3)
Text: as §1, §2

[4] = target: T4, ARR2
Text: as §1, §2

Row | Binder | binding result [1] | binding result [2] | binding result [3] | binding result [4]
1 | KISS ME DEADLY 1 (KMD1) (other, Arabidopsis, UniProt Q9M8L2 1-354, looked up, Full-length protein; also called At1g80440) MELIPNLPDDVARECLLRSSYQQFPVIASVCRAWNREVSLSQFLHQRKASRHSQELLILSQARVDPAGSGKIIATPEYRISVLESGSGLWTELPPIPGQTKGLPLFCRLVSVGSDLIVLGGLDPITWQAHDSVFVFSFLTSKWRVGATMPGVRRSFFGCASDSDRTVLVAGGHNEEKCALTSAMVYDVSEDKWTFLPDMARERDECKAVFHAGRFHVIGGYATEEQGQFSKTAESFDVSTWEWGPLTEDFLDDTGDTVSPPTCVAGGDLYACWGGDVMMFLNDKWQKVGQIPADVYNVTYVAVRPGMLIVIGNGKALAGYGEATVGYICDLSSSRWVKLETHGGHVQAGCFLEV | binds | binds | no binding | binds
2 | KISS ME DEADLY 2 (KMD2) (other, Arabidopsis, UniProt Q9LMR5 1-359, looked up, Full-length protein; LexA fusion in yeast two-hybrid, YFP^N or YFP^C fusion in BiFC; also called At1g15670) MELIPDLPETVAYECLLRSSYKQFPLMASVCKLWQREISLSDFFRHRKASGHSQELVVLSQARVDPVKELVSGNKTIPTPVYRISVLELGTGLRSELPPVPGHSNGLPLFCRLVSVGSDLVVLCGLDPVTWRTSDSVFVFSFLTSTWRVGKSMPGGPRSFFACASDSQRNVFVAGGHDEDKNAMMSALVYDVAEDRWAFLPDMGRERDECTAIFHAGKFHVIGGYSTEEQGQFSKTAESFDVTTWRWSPQGEEFLSSEMTMWPPICAAGENGDLYACCRRDLMMMKDDTWYKVGNLPADVCNVSYVAIRRSGNLVVIGSARYGEPSVGYNWDMSNSRWLKLETHDKYEGHVQAGCFLEI | binds | binds | no binding | binds
